The results in this text go back to patent US7271172B2, “Pyrrolidine and azetidine compounds as CCR5 antagonists” (SmithKline Beecham Corporation, priority 2002, dated 2007).

For this assay, the target named is T1, human CCR5 chemokine receptor (Homo sapiens, UniProt P51681).
T1 construct: host or cells: Chinese Hamster Ovary (CHO) cells; membranes prepared from the cell pellet
Kind of assay: CC-Chemokine Receptor-5 Binding by Scintillation Proximity Assay (CCR5 SPA), displacement of [125I]MIP1α. The note with it: standard compound, 14-point concentration-response curve in triplicate, starting concentration 1 μM. The procedure: CC-Chemokine Receptor-5 Binding by Scintillation Proximity Assay (CCR5 SPA) Scintillation Proximity Assay for the Human CC-Chemokine Receptor, CCR-5
This protocol describes a high-throughput screen using SPA binding to identify compounds that inhibit binding of ^125-MIP1α to the human CCR5 chemokine receptor.
Human CCR5 receptors were expressed in Chinese Hamster Ovary (CHO) cells, registration # 12025. Cells were grown in suspension and a 50 to 80 ml CCR5 cell pellet was prepared. […]
The saturation curve binding experiment is performed by adding varying amounts of [^125I]MIP1α (0-8.5 nM to membranes and beads in concentrations chosen from the optimal protein/bead ratio. The data is analyzed using a non-linear curve-fitting program. The Kd and Bmax are derived from the curve. […]
Background: SPA uses beads or plates that emit light when radiolabelled molecules are held near them.

T1 sequence (P51681 whole entry): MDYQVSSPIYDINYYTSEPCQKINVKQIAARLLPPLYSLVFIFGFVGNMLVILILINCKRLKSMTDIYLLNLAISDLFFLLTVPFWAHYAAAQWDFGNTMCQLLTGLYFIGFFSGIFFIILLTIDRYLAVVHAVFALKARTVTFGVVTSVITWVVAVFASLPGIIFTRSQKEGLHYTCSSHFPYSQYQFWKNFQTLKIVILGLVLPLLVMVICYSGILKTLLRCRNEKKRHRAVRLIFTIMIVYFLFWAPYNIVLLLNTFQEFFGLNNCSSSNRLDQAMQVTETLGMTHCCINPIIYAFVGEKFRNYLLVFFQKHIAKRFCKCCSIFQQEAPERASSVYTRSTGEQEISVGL

As to “MIP1α: natural chemokine ligand of CCR5; standard compound of the CCR5 SPA binding assay”, the “average historical pKi” value turned out to be 7.6.
